{"source": "patent US5925540A", "about": "“Synthetic antifreeze peptide and synthetic gene coding for its production” (Virginia Tech Intellectual Properties, Inc., priority 1991, dated 1999)", "molecules": {"B1": {"name": "WF8R: synthetic antifreeze peptide of 98 amino acids with eight eleven-amino-acid repeats, modeled on winter flounder AFP, expressed in E. coli (protein)", "chain": "MSTASDAAAAAAATAATAAAAAAATAATAAAAAAATAATAAAAAAATAATAAAAAAATAATAAAAAAATAATAAKAAALTAANAAAAAAATAAAAARG"}}, "system": "JM109(DE3)", "assay": "Studies of cell viability in JM109(DE3) strains bearing pX28 or pX284 after IPTG induction", "type": "cell-based, E.coli", "conditions": "WF8R expressed as P10 fusion protein from pX28 / pX284; effects more pronounced in the pX28 harboring strain", "text": "The pX28 and pX284 were transformed into JM109(DE3). The proteins produced in either the JM109(DE3)[pX28] or in the JM109(DE3)[pX284] after induction by IPTG in mid- or late-logarithmic growth phase, have been analyzed by sodium dodecyl sulfate (SDS)-polyacrylamide gel electrophoresis (SDS-PAGE). […] Studies of cell viability in these strains have shown that both strains are adversely affected with respect to growth and stability of the plasmid (these effects were more pronounced in the pX28 harboring strain). […] To avert this problem the applicants decided to protect the fusion protein from intracellular degradation, as well as to protect the cells from the toxicity of WF8R, by adding to the fusion a C-terminal end derived from E.coli β-galactosidase.", "data": [{"molecule": "B1", "values": [{"measurement": "toxicity to the host cells (growth and stability of the plasmid adversely affected)", "result": "toxic to the cells"}]}]}
